Publication PMC8513623

What was measured:
[1] = biological target: Full-length zebrafish Cavin4b (Cavin4b-FL), His-ubiquitin tagged (zebrafish) (UniProt Q5PQY9); assay: ITC
[2] = biological target: Bin1b SH3 domain (zebrafish), N-terminally His-tagged (zebrafish); assay: ITC

Substance	Kd [1]	Kd [2]
Bin1b SH3 domain (zebrafish), N-terminally His-tagged (domain or fragment)	55.9 µM	
Chikungunya virus (CHIKV) proline-rich peptide		0.0889 µM
Cavin4b PRD peptide (zebrafish Cavin4b proline-rich peptide) (from UniProt Q5PQY9 271-286)		61.7 µM
